Results on five molecules are retold here after patent publication US20220024983A1, “BICYCLIC PEPTIDE LIGANDS SPECIFIC FOR IL-17” (BicycleRD Limited, priority 2018, published 2022).

Assay [1] deals with T1, human IL-17A dimer (human, UniProt Q16552 24-155).
T1 construct: also called hIL17-A
T1 sequence (looked up): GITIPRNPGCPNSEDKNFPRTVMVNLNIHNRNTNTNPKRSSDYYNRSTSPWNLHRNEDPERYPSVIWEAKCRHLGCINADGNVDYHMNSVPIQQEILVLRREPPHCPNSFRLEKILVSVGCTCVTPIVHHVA
Briefly: binding assay, method analogous to WO 2011/141823.

For a further assay, the target named is T2, mouse IL-17A dimer (mouse, UniProt Q62386 26-158).
T2 sequence (looked up): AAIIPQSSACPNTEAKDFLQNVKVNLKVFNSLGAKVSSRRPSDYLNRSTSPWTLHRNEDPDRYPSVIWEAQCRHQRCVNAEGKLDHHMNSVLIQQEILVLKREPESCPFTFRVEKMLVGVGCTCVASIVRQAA
Briefly: binding assay, method analogous to WO 2011/141823.

In assay [2] the target is T1, human IL-17A dimer. Kind of assay: binding assay, method analogous to WO 2011/141823; Mean column, n=2.
Assay [3] deals with T1, human IL-17A dimer. Kind of assay: binding assay, method analogous to WO 2011/141823. This is another data set of the same source.
In assay [4] the target is T1, human IL-17A dimer. Kind of assay: FP competition, competitor: tracer BCY2311; Ki Mean column, n=6. How it is done:
(§1) Affinity determination by fluorescence polarization (FP) competition. […] Peptides were diluted to an appropriate concentration in assay buffer (PBS+0.01% Tween20, adjusted to pH7.4 using NaOH (1M)) with a maximum of 1% DMSO, then serially diluted 1 in 2 into assay buffer. […] The PHERAstar FS was set at 25° C. with 200 flashes per well and a positioning delay of 0.1 second, with each well measured at 5 to 10 minute intervals for 60 minutes. […] Data analysis was performed in Dotmatics where mP values were fit to the Cheng Prusoff equation in order to generate a Ki value.

Assay [5] deals with T1, human IL-17A dimer. Briefly: FP competition, competitor: tracer BCY2311. How it is done: as §1
The target of assay [6] is T1, human IL-17A dimer. Briefly: FP competition, competitor: tracer BCY2315. The protocol:
as §1

Assay [7] deals with T1, human IL-17A dimer. Briefly: FP competition, competitor: tracer BCY2315; Ki Mean column, n=2. The protocol: as §1
The next assay concerns the target T3, human IL-17E (human, UniProt Q9H293 33-177).
T3 construct: also called hIL17-E; IL-25
T3 sequence (looked up): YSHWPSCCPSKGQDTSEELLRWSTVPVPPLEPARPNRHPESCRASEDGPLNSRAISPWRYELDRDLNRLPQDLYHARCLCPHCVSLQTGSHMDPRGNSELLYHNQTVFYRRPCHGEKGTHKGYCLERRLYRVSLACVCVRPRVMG
Kind of assay: binding assay, method analogous to WO 2011/141823; column head prints hIL17-F, read as IL-17E by paragraph 30.

*1 amine or outer side, *2 acyl side, *3 side chain or, on linkers, in order; H or OH if unused. Bridges are numbered along the chain shown (N, C = ends). Where no end group is shown, it is not given here. TBMB = c1c(C[*:1])cc(C[*:3])cc1C[*:2]

B1: BCY2310 (peptide)
peptide: ACPQDLELCTFLFGDCAXXXXXXK
modifications: Ci, Cii and Ciii cyclised with TBMB; six sarcosines (written X) after the C-terminal Ala; fluorescein (Fl) on the C-terminal Lys
Take B1: the figures for the Kd with human IL-17A dimer [1], in the assay with mouse IL-17A dimer and with human IL-17A dimer [2] were 0.0267 µM, 0.11 µM and 0.0266 µM, respectively.

B2: BCY2232 (peptide)
peptide: CPENELYCFLSSQQC
modifications: linker 1-8-15 via TBMB
notes: Bicyclic peptide
On to B2, for which the Kd (commonly the free concentration of one partner at which half of the binding sites on the other are occupied at equilibrium, for simple one-to-one binding) in the assay with human IL-17A dimer [3] was determined as 0.398 µM.

B3: BCY2240 [Ac-(SEQ ID NO: 36)] (peptide)
peptide: Ac-CYEAELCAFLGLC
modifications: linker 1-7-13 via TBMB
notes: Bicyclic peptide
On to B3, for which the Ki (usually the dissociation constant of the complex between target and ligand, obtained from inhibition or displacement) turned out to be 0.0257 µM in the assay with human IL-17A dimer [4] and 0.0269 µM with human IL-17A dimer [5].

B4: BCY2249 (peptide)
peptide: CYEDELCEFLALC
modifications: linker 1-7-13 via TBMB
notes: Bicyclic peptide
On to B4, for which the Ki with human IL-17A dimer [6] and with human IL-17A dimer [7] was 0.065 µM throughout.

B5: BCY2240 [A-(SEQ ID NO: 56)-A] (peptide)
peptide: ACGYDYYCALYDICA
modifications: linker 2-8-14 via TBMB
notes: Bicyclic peptide
In the case of B5, binding with human IL-17E was characterised by a dissociation constant (Kd) of 0.198 µM.
